Paper PMC3817407

B1: AS16_3622 (protein)
chain: MMKTDELISLLATAEGPVDRHALARRLGLALLAGLLGALLLTVALYGVRSDLAEVARTPLFWAKVALPTSLALLGLWLTQRLARPGVRGGALWGLLGVPLLLVWLGAAISLFGAPPEARADLIFGRTWRTCALNITLLSTPVFIAVFWALRGLAPTRLRQAGAAGGLLAGSTATLVYCLHCPEMGVPFWGLWYLLGMLVPTLLGAVLGPRLLRW
B2: AS22_1147 (protein)
chain: MELDDIAVAWRSLEQRLDQHAALAGQVLGDLRSHAARAHLRPLWLSQSAQLLCAIALSGLVAHSWLAFPEQAAAIVGGVLLQIWCVALAASAARQLWLLSQLDFARPLLQTQRALAQLRRWRTRVAPWLGVAFWVLWVAVADAAWRALTGRSLPYAWLLCNLLVGVLGGIGTWLGYRRLQRSGHPWLERLDTVHAGRSVARTETLLEQIARFQRE
B3: AS02_915 (protein)
chain: MEKTGQEWVSASVDGETDRQTLAELAADTDSHAKWQRYHLMGDAMRDELPQAMPLDLSARIAAALEDEPTILAPKVEREATQAPSRAVVVPFMRQLGQYGIAAAVALMAVVGVQNYQSTQDDAPLPVLNTRPLVGTATPVSLQTGPVANQNQGNANDQLLEQRRRINAYLQDHMLQQRLNTGAVVDDNSEVTPIPVNR
B4: AS15_524 (protein)
chain: MNFGVEDMIEHVPMEDKRKGAAALDEARLRQQAIGVKLRQMFDEVVNEPVPDEFLAILRKAERPAGGE
B5: AS16_973 (protein)
chain: MKTDDLIALLAAGEGPVPRHAVGRRMAVAALGGLTAALLLTITLYGVRSDITEVAQTPLFWGKVAFPTSLALIGLWLTSRLARPGGKGAAGWKMLGLPLLLVWCGAAVSIAGAPVDARADLLFGRTWRTCALNIALLSVPAFVTVFWALKGLAPTRLRLAGAAGGLLAGSSATVAYCLHCPEMGVPFWGVWYVLGMLVPTVLGAWWGPRMLRW
B6: AS22_4450 (protein)
chain: MELDDMKHAWQTLEQRLDQQAAQTGQLLGVVHEETVRSSLRPLWVAQTAQLLCALALAIVSARSWIPHTDQPVAVIGGVLLQAWCMALAISAMVQLQLLTQFNVAGPLLRTQHALARLRRWRTRVAPWLGVAFWVLWIAVADALWRALTGQTLPTDWLVLNLLVGVAGGIGTWLGFRRLQRAQHPWLERIDRAHAGTGVIRAERMLEEIARFQRD
B7: AS20_992 (protein)
chain: MTPERFVHLADAYGADLQRWPSAERAAAQALLDCGDAQAVAALRQAHWLDSQLDRYQVPAPSPALAQRIIAAAQQPGAPFWSRYAGWLASLGWVGVGLTGVAAGMLAVALSLPLSTSAEALPSVFDQSDAEFVLSINAEEAEQ

Biological target: T1, ECF16_3622
T1 chain: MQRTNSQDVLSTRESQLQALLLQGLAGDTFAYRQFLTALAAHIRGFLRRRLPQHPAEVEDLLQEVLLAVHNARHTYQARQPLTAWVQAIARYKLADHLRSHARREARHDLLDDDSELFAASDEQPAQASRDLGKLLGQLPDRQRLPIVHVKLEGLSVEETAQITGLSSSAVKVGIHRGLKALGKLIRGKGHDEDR

Binder	fold repression
B1	254
B2	2.91
B3	4.3
B4	7.87
B5	57
B6	1.79
B7	1.71

Biological target: T2, ECF38_1322
T2 chain: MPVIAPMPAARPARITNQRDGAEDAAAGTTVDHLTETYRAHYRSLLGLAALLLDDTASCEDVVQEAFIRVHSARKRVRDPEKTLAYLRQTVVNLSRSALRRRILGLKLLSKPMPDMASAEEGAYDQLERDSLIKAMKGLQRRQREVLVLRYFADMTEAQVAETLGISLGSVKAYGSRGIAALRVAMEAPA

Binder	fold repression
B1	2.34
B2	1.99
B3	2.24
B4	4.8
B5	0.629
B6	1.78
B7	1.72

Biological target: T3, ECF34_1384
T3 chain: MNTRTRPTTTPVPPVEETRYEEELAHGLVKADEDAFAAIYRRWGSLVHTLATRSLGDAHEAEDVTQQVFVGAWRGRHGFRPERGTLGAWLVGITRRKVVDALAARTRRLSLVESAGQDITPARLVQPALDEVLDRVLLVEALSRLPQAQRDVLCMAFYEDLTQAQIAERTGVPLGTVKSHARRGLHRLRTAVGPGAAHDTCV

Binder	fold repression
B1	2.8
B2	2.09
B3	3.28
B4	5.15
B5	0.757
B6	1.66
B7	1.64

Biological target: T4, ECF37_2513
T4 chain: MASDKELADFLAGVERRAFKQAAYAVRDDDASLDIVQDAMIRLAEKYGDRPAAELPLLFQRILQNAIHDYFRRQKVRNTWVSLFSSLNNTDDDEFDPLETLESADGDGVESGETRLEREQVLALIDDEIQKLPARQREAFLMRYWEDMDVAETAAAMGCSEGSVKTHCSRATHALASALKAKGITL

Binder	fold repression
B1	4.97
B2	3.66
B3	2.48
B4	4.17
B5	1.04
B6	1.51
B7	1.98

Biological target: T5, ECF33_375
T5 chain: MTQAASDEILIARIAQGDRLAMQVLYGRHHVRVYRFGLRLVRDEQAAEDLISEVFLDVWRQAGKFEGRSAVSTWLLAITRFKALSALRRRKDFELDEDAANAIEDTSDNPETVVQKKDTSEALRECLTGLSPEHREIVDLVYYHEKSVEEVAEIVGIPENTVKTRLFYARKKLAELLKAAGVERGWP

Binder	fold repression
B1	1.17
B2	1.26
B3	2.44
B4	4.38
B5	0.373
B6	1.4
B7	1.04

Biological target: T6, ECF11_987
T6 chain: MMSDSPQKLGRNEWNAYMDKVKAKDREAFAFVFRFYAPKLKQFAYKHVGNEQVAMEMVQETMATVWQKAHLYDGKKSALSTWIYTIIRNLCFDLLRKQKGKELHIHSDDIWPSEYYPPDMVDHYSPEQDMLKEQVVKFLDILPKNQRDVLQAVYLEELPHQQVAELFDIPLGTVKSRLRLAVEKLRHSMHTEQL

Binder	fold repression
B1	4.23
B2	3.16
B3	3.88
B4	3.74
B5	1.32
B6	1.89
B7	2.81

Biological target: T7, ECF25_1645
T7 chain: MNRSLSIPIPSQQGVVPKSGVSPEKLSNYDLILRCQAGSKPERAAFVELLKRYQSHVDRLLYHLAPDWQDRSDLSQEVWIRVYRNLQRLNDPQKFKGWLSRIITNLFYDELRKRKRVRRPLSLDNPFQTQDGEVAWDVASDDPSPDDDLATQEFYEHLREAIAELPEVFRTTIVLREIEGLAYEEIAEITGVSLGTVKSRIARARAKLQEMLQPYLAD

Binder	fold repression
B1	1.53
B2	2.27
B3	1.99
B4	3.69
B5	0.538
B6	1.42
B7	1.3

Biological target: T8, ECF14_1324
T8 chain: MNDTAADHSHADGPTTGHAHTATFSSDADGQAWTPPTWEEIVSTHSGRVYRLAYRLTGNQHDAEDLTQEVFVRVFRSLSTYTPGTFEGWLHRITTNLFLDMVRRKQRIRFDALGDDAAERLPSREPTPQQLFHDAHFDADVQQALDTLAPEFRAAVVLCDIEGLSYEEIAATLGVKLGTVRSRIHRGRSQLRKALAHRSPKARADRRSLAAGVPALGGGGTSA

Binder	fold repression
B1	8.8
B2	4.18
B3	4.42
B4	10.5
B5	0.887
B6	2.85
B7	1.64

Biological target: T9, ECF03_1244
T9 chain: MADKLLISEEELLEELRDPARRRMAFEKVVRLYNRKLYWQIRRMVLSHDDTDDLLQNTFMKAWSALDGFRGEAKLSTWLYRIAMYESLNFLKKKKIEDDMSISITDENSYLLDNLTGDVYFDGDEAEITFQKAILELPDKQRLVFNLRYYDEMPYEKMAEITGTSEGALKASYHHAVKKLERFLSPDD

Binder	fold repression
B1	2.09
B2	3.22
B3	3.01
B4	2.96
B5	0.783
B6	1.75
B7	1.39

Biological target: ECF26_4464

Binder	fold repression
B1	8.91
B2	3.82
B3	3.42
B4	28.2
B5	1.46
B6	2.51
B7	2.04

Biological target: T10, ECF01_3473
T10 chain: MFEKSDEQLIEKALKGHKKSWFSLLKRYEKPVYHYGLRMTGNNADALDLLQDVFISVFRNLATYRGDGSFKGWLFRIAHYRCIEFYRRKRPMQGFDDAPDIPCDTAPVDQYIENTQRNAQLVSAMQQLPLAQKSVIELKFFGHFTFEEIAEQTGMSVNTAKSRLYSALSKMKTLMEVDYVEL

Binder	fold repression
B1	2.63
B2	3.03
B3	5.57
B4	9.89
B5	0.602
B6	1.32
B7	2.3

Biological target: T11, ECF15_524
T11 chain: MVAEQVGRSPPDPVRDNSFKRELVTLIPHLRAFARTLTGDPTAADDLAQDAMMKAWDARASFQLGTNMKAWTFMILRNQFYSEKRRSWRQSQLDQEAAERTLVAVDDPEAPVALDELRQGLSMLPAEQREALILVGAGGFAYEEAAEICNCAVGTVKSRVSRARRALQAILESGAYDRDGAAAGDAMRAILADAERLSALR

Binder	fold repression
B1	3.36
B2	2.65
B3	2.55
B4	31.4
B5	0.668
B6	1.53
B7	1.58

Biological target: T12, ECF17_1691
T12 chain: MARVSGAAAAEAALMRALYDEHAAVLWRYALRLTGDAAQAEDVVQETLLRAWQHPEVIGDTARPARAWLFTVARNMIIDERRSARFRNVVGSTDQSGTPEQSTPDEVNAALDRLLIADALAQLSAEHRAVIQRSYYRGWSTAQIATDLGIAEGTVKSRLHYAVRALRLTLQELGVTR

Binder	fold repression
B1	2.43
B2	1.74
B3	2.73
B4	5.16
B5	0.852
B6	1.52
B7	2.05

Biological target: T13, ECF15_436
T13 chain: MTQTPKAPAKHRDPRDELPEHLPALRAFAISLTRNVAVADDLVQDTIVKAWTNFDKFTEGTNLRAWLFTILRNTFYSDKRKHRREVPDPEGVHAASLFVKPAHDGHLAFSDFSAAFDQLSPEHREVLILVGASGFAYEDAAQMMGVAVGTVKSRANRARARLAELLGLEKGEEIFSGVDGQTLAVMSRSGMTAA

Binder	fold repression
B1	4.75
B2	3.01
B3	3.47
B4	16.7
B5	0.884
B6	1.41
B7	1.32

Biological target: T14, ECF22_1147
T14 chain: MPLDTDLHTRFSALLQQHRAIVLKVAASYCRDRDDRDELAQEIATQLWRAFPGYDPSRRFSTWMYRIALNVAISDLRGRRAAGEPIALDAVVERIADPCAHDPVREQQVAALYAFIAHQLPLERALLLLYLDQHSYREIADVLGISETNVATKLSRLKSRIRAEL

Binder	fold repression
B1	8.27
B2	6.19
B3	4.49
B4	6.96
B5	1.2
B6	5.73
B7	2.47
